The target in experiment [1] is BG505 SOSIP.v4.1 Env trimer produced in STT3A-KO HEK293T cells (HIV-1 strain BG505 (clade A)). The experiment in a line: native gel or EMSA. On the technique in general: In EMSA bound probe runs differently from free probe, usually more slowly.
For experiment [2] the target is unchanged. The experiment in a line: SEC; SEC of Ni-NTA-purified Env on a Superdex 200 10/300 GL column; trimer, dimer and monomer peaks.
Experiment [3] has as its target BG505 SOSIP.v4.1 Env trimer produced in STT3B-KO HEK293T cells (HIV-1 strain BG505 (clade A)). The experiment in a line: native gel or EMSA.
For experiment [4] the target is unchanged. The experiment in a line: SEC; SEC of Ni-NTA-purified Env on a Superdex 200 10/300 GL column; trimer, dimer and monomer peaks. A general note: Size exclusion chromatography separates by hydrodynamic size, large species first.
Experiment [5] addresses BG505 SOSIP.v4.1 Env trimer produced in wild-type (WT) HEK293T cells (HIV-1 strain BG505 (clade A)). The experiment in a line: native gel or EMSA.
Experiment [6] has the same target. The experiment in a line: SEC; SEC of Ni-NTA-purified Env on a Superdex 200 10/300 GL column; trimer, dimer and monomer peaks.

The values below come from publication PMC13011424.

As usually defined, the stoichiometry N is the number of molecules, sites or subunits per partner or assembly. For the substance “BG505 SOSIP.v4.1 Env trimer produced in STT3A-KO HEK293T cells (complex)”, the stoichiometry N in experiment [1] and in experiment [2] was 3 in each case.
As to “BG505 SOSIP.v4.1 Env trimer produced in STT3B-KO HEK293T cells (complex)”, the stoichiometry N in experiment [3] and in experiment [4] was 3 each time.
On to “BG505 SOSIP.v4.1 Env trimer produced in wild-type (WT) HEK293T cells (complex)”, for which the stoichiometry N in experiment [5] and in experiment [6] was 3 in each case.
